The source of these data is patent US20160304571.

The target in series [1] is Lys6-linked diubiquitin, P0CG48.
Series [2] addresses Lys63-linked diubiquitin (enzymatically assembled), P0CG48.
For series [3], the target named is Lys29-linked diubiquitin, P0CG48.
Chain of Lys29-linked diubiquitin, P0CG48 (P0CG48 whole entry, looked up): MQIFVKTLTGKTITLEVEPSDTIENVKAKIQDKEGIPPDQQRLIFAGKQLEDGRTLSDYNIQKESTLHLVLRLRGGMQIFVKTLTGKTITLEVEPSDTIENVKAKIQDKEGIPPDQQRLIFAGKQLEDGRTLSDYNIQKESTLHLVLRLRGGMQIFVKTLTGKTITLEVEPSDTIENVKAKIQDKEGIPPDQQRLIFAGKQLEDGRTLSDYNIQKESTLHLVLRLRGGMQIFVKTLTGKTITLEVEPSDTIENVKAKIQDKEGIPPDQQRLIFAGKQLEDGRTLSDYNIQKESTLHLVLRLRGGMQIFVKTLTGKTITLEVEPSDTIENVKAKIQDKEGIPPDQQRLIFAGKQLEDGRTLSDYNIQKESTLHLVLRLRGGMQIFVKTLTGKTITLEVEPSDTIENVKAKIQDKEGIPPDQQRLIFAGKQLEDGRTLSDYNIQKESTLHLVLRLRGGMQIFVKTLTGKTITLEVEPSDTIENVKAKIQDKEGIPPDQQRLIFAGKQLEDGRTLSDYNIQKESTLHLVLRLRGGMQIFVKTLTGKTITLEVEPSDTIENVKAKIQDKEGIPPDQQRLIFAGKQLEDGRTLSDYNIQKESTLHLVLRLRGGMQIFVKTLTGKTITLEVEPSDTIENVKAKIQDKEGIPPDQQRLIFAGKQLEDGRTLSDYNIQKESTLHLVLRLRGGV

Chain of Lys6-linked diubiquitin, P0CG48 (P0CG48 whole entry, looked up): as above
Chain of Lys63-linked diubiquitin (enzymatically assembled), P0CG48 (P0CG48 whole entry, looked up): as above

B1: USP15 (protein)
chain: MAEGGAADLDTQRSDIATLLKTSLRKGDTWYLVDSRWFKQWKKYVGFDSWDKYQMGDQNVYPGPIDNSGLLKDGDAQSLKEHLIDELDYILLPTEGWNKLVSWYTLMEGQEPIARKVVEQGMFVKHCKVEVYLTELKLCENGNMNNVVTRRFSKADTIDTIEKEIRKIFSIPDEKETRLWNKYMSNTFEPLNKPDSTIQDAGLYQGQVLVIEQKNEDGTWPRGPSTPKSPGASNFSTLPKISPSSLSNNYNNMNNRNVKNSNYCLPSYTAYKNYDYSEPGRNNEQPGLCGLSNLGNTCFMNSAIQCLSNTPPLTEYFLNDKYQEELNFDNPLGMRGEIAKSYAELIKQMWSGKFSYVTPRAFKTQVGRFAPQFSGYQQQDCQELLAFLLDGLHEDLNRIRKKPYIQLKDADGRPDKVVAEEAWENHLKRNDSIIVDIFHGLFKSTLVCPECAKISVTFDPFCYLTLPLPMKKERTLEVYLVRMDPLTKPMQYKVVVPKIGNILDLCTALSALSGIPADKMIVTDIYNHRFHRIFAMDENLSSIMERDDIYVFEININRTEDTEHVIIPVCLREKFRHSSYTHHTGSSLFGQPFLMAVPRNNTEDKLYNLLLLRMCRYVKISTETEETEGSLHCCKDQNINGNGPNGIHEEGSPSEMETDEPDDESSQDQELPSENENSQSEDSVGGDNDSENGLCTEDTCKGQLTGHKKRLFTFQFNNLGNTDINYIKDDTRHIRFDDRQLRLDERSFLALDWDPDLKKRYFDENAAEDFEKHESVEYKPPKKPFVKLKDCIELFTTKEKLGAEDPWYCPNCKEHQQATKKLDLWSLPPVLVVHLKRFSYSRYMRDKLDTLVDFPINDLDMSEFLINPNAGPCRYNLIAVSNHYGGMGGGHYTAFAKNKDDGKWYYFDDSSVSTASEDQIVSKAAYVLFYQRQDTFSGTGFFPLDRETKGASAATGIPLESDEDSNDNDNDIENENCMHTN
Regarding B1, the “cleavage in in vitro deubiquitinase assay (SDS-PAGE)” value in series [1] is “disassembled this chain type as efficiently as K63-linked chains”; in series [2], “disassembled this chain type as efficiently as K63-linked chains”; in series [3], “appreciably higher resistance to hydrolysis by USP2, USP15 and USP21 than K6- and K63-linked ubiquitin”.
